From the supplement of paper PMC10567573

B1: HSP90AB1 (parent)
chain: YHTSQSGDEMTSLSEYVSRMKETQ

Variants of: B1
Assay: protein stability index of a GFP-peptide fusion (GPS, HEK-293T) (PSI 1-6); higher = more stable
Conditions: c terminus: a fixed tail appended
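Note: lentivirally expressed fusions sorted by FACS into six bins by GFP to DsRed ratio, PSI derived from sequencing read proportions per bin multiplied by bin number.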

Row | Variant | protein stability index
1 | YHTSQSGDEMTSLSEYVSRMWETQ [K21W] | 2.64
2 | YHTSQSGDEMTSLSEYVSRMPETQ [K21P] | 3.63
3 | YHTSQSGDEMTSLSEYVSRMSETQ [K21S] | 3.35
4 | YHTSQSGDEMTSLSEYVSRMVETQ [K21V] | 3.58
5 | YHTSQSGDEMTSLSEYVSRMCETQ [K21C] | 3.47
6 | YHTSQSGDEMTSLSEYVSRMAETQ [K21A] | 3.71
7 | YHTSQSGDEMTSLSEYVSRMNETQ [K21N] | 3.88
8 | YHTSQSGDEMTSLSEYVSRMMETQ [K21M] | 3.13
9 | YHTSQSGDEMTSLSEYVSRMYETQ [K21Y] | 2.61
10 | YHTSQSGDEMTSLSEYVSRMGETQ [K21G] | 3.84
11 | YHTSQSGDEMTSLSEYVSRMLETQ [K21L] | 3.52
12 | YHTSQSGDEMTSLSEYVSRMTETQ [K21T] | 3.42
13 | YHTSQSGDEMTSLSEYVSRMRETQ [K21R] | 3.29
14 | YHTSQSGDEMTSLSEYVSRMKETA [Q24A] | 3.26
15 | YHTSQSGDEMTSLSEYVSRMKETI [Q24I] | 3.05
16 | YHTSQSGDEMTSLSEYVSRMKETP [Q24P] | 3.43
17 | YHTSQSGDEMTSLSEYVSRMKETK [Q24K] | 3.43
18 | YHTSQSGDEMTSLSEYVSRMKETE [Q24E] | 3.94
19 | YHTSQSGDEMTSLSEYVSRMKETN [Q24N] | 3.62
20 | YHTSQSGDEMTSLSEYVSRMKETY [Q24Y] | 3.1
21 | YHTSQSGDEMTSLSEYVSRMKETC [Q24C] | 3.18
22 | YHTSQSGDEMTSLSEYVSRMKETS [Q24S] | 3.61
23 | YHTSQSGDEMTSLSEYVSRMKETL [Q24L] | 2.98
24 | YHTSQSGDEMTSLSEYVSRMKETM [Q24M] | 3.2

Row | Variant | protein stability index
25 | YHTSQSGDEMTSLSEYVSRMKETD [Q24D] | 4.06
26 | YHTSQSGDEMTSLSEYVSRMKETG [Q24G] | 3.52
27 | YHTSQSGDEMTSLSEYVSRMKETT [Q24T] | 3.64
28 | YHTSQSGDEMTSLSEYVSRMKETV [Q24V] | 3.19
29 | YHTSQSGDEMTSLSEYVSRMKETF [Q24F] | 3.16
30 | YHTSQSGDEMTSLSEYVSRMKETR [Q24R] | 3.53
31 | YHTSQSGDEMTSLSEYVSRIKETQ [M20I] | 3.29
32 | YHTSQSGDEMTSLSEYVSRTKETQ [M20T] | 4.27
33 | YHTSQSGDEMTSLSEYVSRWKETQ [M20W] | 2.47
34 | YHTSQSGDEMTSLSEYVSRDKETQ [M20D] | 4.46
35 | YHTSQSGDEMTSLSEYVSRKKETQ [M20K] | 4.11
36 | YHTSQSGDEMTSLSEYVSRYKETQ [M20Y] | 3.55
37 | YHTSQSGDEMTSLSEYVSRNKETQ [M20N] | 4.1
38 | YHTSQSGDEMTSLSEYVSRCKETQ [M20C] | 3.81
39 | YHTSQSGDEMTSLSEYVSRSKETQ [M20S] | 3.73
40 | YHTSQSGDEMTSLSEYVSRHKETQ [M20H] | 4.16
41 | YHTSQSGDEMTSLSEYVSRGKETQ [M20G] | 4.37
42 | YHTSQSGDEMTSLSEYVSRRKETQ [M20R] | 4.26
43 | YHTSQSGDEMTSLSEYVSRVKETQ [M20V] | 3.92
44 | YHTSQSGDEMTSLSEYVSREKETQ [M20E] | 3.73
45 | YHTSQSGDEMTSLSEYVSRPKETQ [M20P] | 4.44
46 | YHTSQSGDEMTSLSEYVSRLKETQ [M20L] | 3.42
47 | YHTSQSGDEMTSLSEYVSRAKETQ [M20A] | 4.62
48 | YHTSQSGDEMTSLSEYVSRQKETQ [M20Q] | 4.13

Row | Variant | protein stability index
49 | YHTSQSGDEMTSLSEYVSRFKETQ [M20F] | 2.89
50 | YHTSQSGDEMTSLSEYVSYMKETQ [R19Y] | 3.7
51 | YHTSQSGDEMTSLSEYVSHMKETQ [R19H] | 3.68
52 | YHTSQSGDEMTSLSEYVSIMKETQ [R19I] | 3.66
53 | YHTSQSGDEMTSLSEYVSNMKETQ [R19N] | 4.32
54 | YHTSQSGDEMTSLSEYVSEMKETQ [R19E] | 4.66
55 | YHTSQSGDEMTSLSEYVSVMKETQ [R19V] | 3.67
56 | YHTSQSGDEMTSLSEYVSDMKETQ [R19D] | 4.41
57 | YHTSQSGDEMTSLSEYVSPMKETQ [R19P] | 3.47
58 | YHTSQSGDEMTSLSEYVSAMKETQ [R19A] | 3.72
59 | YHTSQSGDEMTSLSEYVSQMKETQ [R19Q] | 4.15
60 | YHTSQSGDEMTSLSEYVSSMKETQ [R19S] | 3.8
61 | YHTSQSGDEMTSLSEYVSGMKETQ [R19G] | 4.09
62 | YHTSQSGDEMTSLSEYVSTMKETQ [R19T] | 4.18
63 | YHTSQSGDEMTSLSEYVSLMKETQ [R19L] | 3.22
64 | YHTSQSGDEMTSLSEYVSMMKETQ [R19M] | 3.89
65 | YHTSQSGDEMTSLSEYVSFMKETQ [R19F] | 3.15
66 | YHTSQSGDEMTSLSEYVSKMKETQ [R19K] | 4.27
67 | YHTSQSGDEMTSLSEYVSWMKETQ [R19W] | 3.46
68 | YHTSQSGDEMTSLSEWVSRMKETQ [Y16W] | 2.69
69 | YHTSQSGDEMTSLSEMVSRMKETQ [Y16M] | 4.16
70 | YHTSQSGDEMTSLSEQVSRMKETQ [Y16Q] | 4.17
71 | YHTSQSGDEMTSLSEPVSRMKETQ [Y16P] | 4.02
72 | YHTSQSGDEMTSLSESVSRMKETQ [Y16S] | 4.22

Row | Variant | protein stability index
73 | YHTSQSGDEMTSLSENVSRMKETQ [Y16N] | 4.3
74 | YHTSQSGDEMTSLSEVVSRMKETQ [Y16V] | 3.79
75 | YHTSQSGDEMTSLSETVSRMKETQ [Y16T] | 4.02
76 | YHTSQSGDEMTSLSERVSRMKETQ [Y16R] | 3.98
77 | YHTSQSGDEMTSLSEYHSRMKETQ [V17H] | 3.54
78 | YHTSQSGDEMTSLSEYGSRMKETQ [V17G] | 3.76
79 | YHTSQSGDEMTSLSEYYSRMKETQ [V17Y] | 3.33
80 | YHTSQSGDEMTSLSEYDSRMKETQ [V17D] | 4.57
81 | YHTSQSGDEMTSLSEYISRMKETQ [V17I] | 3.22
82 | YHTSQSGDEMTSLSEYLSRMKETQ [V17L] | 3.56
83 | YHTSQSGDEMTSLSEYQSRMKETQ [V17Q] | 4.04
84 | YHTSQSGDEMTSLSEYNSRMKETQ [V17N] | 4.12
85 | YHTSQSGDEMTSLSEYWSRMKETQ [V17W] | 2.41
86 | YHTSQSGDEMTSLSEYESRMKETQ [V17E] | 4.49
87 | YHTSQSGDEMTSLSEYSSRMKETQ [V17S] | 3.87
88 | YHTSQSGDEMTSLSEYFSRMKETQ [V17F] | 3.23
89 | YHTSQSGDEMTSLSEYTSRMKETQ [V17T] | 3.72
90 | YHTSQSGDEMTSLSEYKSRMKETQ [V17K] | 4.08
91 | YHTSQSGDEMTSLSEYCSRMKETQ [V17C] | 3.27
92 | YHTSQSGDEMTSLSEYASRMKETQ [V17A] | 3.85
93 | YHTSQSGDEMTSLSEYRSRMKETQ [V17R] | 4.27
94 | YHTSQSGDEMTSLSEYPSRMKETQ [V17P] | 3.86
